Results taken from patent US20040248211A1, “ICAM-related protein” (priority 1992, published 2004).

Assays:
human PBL = test: SEA-induced proliferation of PBL; type: cell-based; conditions: for proliferation in response to SEA, plate-bound antibody: 3 days, 3H-thymidine
U937 cells = test: IL-8 release from U937; type: cell-based, human
Method: Monocytes were isolated by elutriation from peripheral blood of normal donors. […] After blocking free sites, the cells were placed into the wells in medium. […] Those cells plated in wells treated with BSA plus or minus LPS were rounded and not spread. After 8 or 18 hours of incubation at 37° C., the medium was removed and assayed for IL-8 immunoreactivity. […] By 18 hours, IL-8 levels in media from ICR monoclonal antibody wells were much elevated over control levels. […] Similar experiments with monocytic cell lines (U937 and HL60) to determine if ICR monoclonal antibody can induce IL-8 release were conducted. U937 cells responded to each of the ICR monoclonal antibody treated wells by releasing IL-8 into the conditioned medium. […] No detectable morphological changes were detected with the U937 or HL60 cells.

[1] = test system: binding of JY cells (CD18+) to recombinant soluble human ICAM-R; test: JY cell adhesion to recombinant soluble human ICAM-R; type: cell-based; conditions: for Inhibition (%) of total CD18-dependent binding: antibody 10 μg/ml, PMA-treated JY cells, total = adhesion blocked by anti-CD18 60.3
Method: The partially purified shICAM-R protein was assayed for binding to SKW3 cells that were pretreated with phorbol ester as described in Example 7 to activate LFA-1-dependent adhesion. The ICAM-R protein was coated onto 96-well Immulon 4 (Dynatech) plates after adjusting the lectin eluate to 25 mM carbonate pH 9.6 and incubated overnight at 4° C. The plates were washed two times with PBS, blocked for 30 minutes at 37° C. with 200 ul/well PBS, 1% BSA, and washed again with PBS before adding cells. SKW3 cells were washed in serum-free RPMI (Gibco), labelled with Calcein-AM (Molecular Probes), and stimulated with PMA. Cells were then added to the plates and incubated for 1 hour at 37° C. The plates were inverted in prewarmed PBS, 1% BSA and were incubated for 30 minutes. The plates were then removed and half of the contents of each well was aspriated. The plates were then scanned with a fluorescence microscope and an automated fluorescence reader.
ICAM-R specific monoclonal antibodies listed in Table 11 in Example 22 were tested for their ability to inhibit binding of JY cells (CD18^+) to recombinant soluble human ICAM-R. Adhesion assays were performed as described in Example 9. Cells were treated with PMA and antibodies were then added at a final concentration of 10 μg/ml. Data was collected from triplicate wells during three independent experiments. Total CD18-dependent binding was determined as the amount of adhesion blocked by a control anti-CD18 monoclonal antibody 60.3. The percentage of total CD18-dependent binding that was inhibited by each monoclonal antibody is shown below in Table 4 wherein the names assigned to monoclonal antibodies produced by each hybridoma are given and “ND” indicates the antibody was not tested. The monoclonal antibody names are used throughout the following examples instead of hybridoma designations.

soluble ICAM-R = target: T1, soluble ICAM-R (Homo sapiens, UniProt P32942); test: ELISA binding to soluble ICAM-R coated onto plastic; conditions: serially diluted purified antibody; 50% maximal binding
T1 construct: made in house; host or cells: Sf-9 insect cells, recombinant baculovirus (pBBIII.ICAM-Rt1), purified on Lentil Lectin Sepharose
T1 sequence (P32942 30-485 limits assumed): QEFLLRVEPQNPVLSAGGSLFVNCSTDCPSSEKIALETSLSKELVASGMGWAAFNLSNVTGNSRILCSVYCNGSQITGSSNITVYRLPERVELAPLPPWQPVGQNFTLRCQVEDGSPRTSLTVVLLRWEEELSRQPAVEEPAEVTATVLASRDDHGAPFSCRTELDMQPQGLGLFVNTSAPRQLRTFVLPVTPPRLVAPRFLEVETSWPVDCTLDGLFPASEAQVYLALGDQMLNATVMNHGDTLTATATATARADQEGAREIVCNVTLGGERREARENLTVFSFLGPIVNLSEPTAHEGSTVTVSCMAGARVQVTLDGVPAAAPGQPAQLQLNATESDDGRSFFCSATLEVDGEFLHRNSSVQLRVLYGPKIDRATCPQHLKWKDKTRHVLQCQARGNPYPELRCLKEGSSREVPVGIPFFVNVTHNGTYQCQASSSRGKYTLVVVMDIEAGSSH
Method: Nine of the purified anti-ICAM-R monoclonal antibodies were diluted serially and assayed in an ELISA format for binding to a fixed amount of soluble ICAM-R (Example 9) coated onto plastic. The results of the assay are presented in Table 3 below wherein high affinity binding was defined as 50% maximal binding at a monoclonal antibody concentration of less than 1 μg/ml and low affinity binding was defined as 50% maximal binding at a monoclonal antibody concentration of greater than 1 μg/ml.

B1: ICR-1.1: anti-ICAM-R monoclonal antibody, IgG2a, domain 1, ATCC HB 11053 (antibody, V domains shown)
VH: QVQLQQSGAELAKPGASVKMSCKASGYTFTVYWMHWVKQRPGQGLEWIGYINPNTDYTEYNQRFQDKATLTADKSSSTAYMQLSSLTSEDSAVYYCARWGGNSYGLDYWGQGTSVTVSS
VL: QIVLTQSPALMSASPGEKVTMTCSASSSVSYIYWYQQKPRSSPKPWIYLTSNLASGVPARFSGSGSGASYSLTISIMEAEDAATYYCQQWKSIPLTFGAGTKLELK
**Q.** What does the source list for B1?
**A.** Blockade of Lymphocyte Activation SEA (human PBL): YES; proliferation in response to SEA, plate-bound antibody (human PBL): significantly inhibited proliferation; IC50 (human PBL; from logistic dose response curves, proliferation versus control antibodies): 63 µg/mL; IL-8 release relative to ICR-4.2, 6.2 or 8.1 treated wells (U937 cells): 3 fold; Blockade of Adhesion of JY Cells to Soluble ICAM-R [1]: YES; Inhibition (%) of total CD18-dependent binding [1]: 45%; Affinity (soluble ICAM-R): Low (50% maximal binding at a monoclonal antibody concentration of greater than 1 μg/ml)

B2: ICR-8.1: anti-ICAM-R monoclonal antibody, IgG1, domain 1, ATCC HB 11232 (antibody, V domains shown)
VH: EIQLQQTGPELVKPGASVKISCKASGYSFTDCIILWVKQSHGKGLEWIGKINPYFGTTTYNLKFKGKATLTVDKSSSTAHMQLNSLTSEDSAVYYCARKEAYPDAMDYWGQGTSVTVSS
VL: DAVMTQTPLSLPVSLGDQASISCRSSQSLVHSNGDTYLHWYLQKPGQSPQLLIYKVSNRFSGVPDRFSGSGSGTDFTLKLSRVEAEDLGVYFCSQSTHVPYTFGGGTKLEIK
**Q.** How did the “Blockade of Lymphocyte Activation SEA” value (human PBL) turn out when B2 was run?
**A.** Its value is “YES”.

**Q.** What about the “proliferation in response to SEA, plate-bound antibody” value (human PBL) of the same molecule?
**A.** The value was “significantly inhibited proliferation”.

**Q.** What about the “IL-8 release relative to the BSA control” value (U937 cells) of the same molecule?
**A.** Its value is “twice”.

**Q.** And the “Blockade of Adhesion of JY Cells to Soluble ICAM-R” value [1]?
**A.** The value was “YES”.

**Q.** What about the “Inhibition (%) of total CD18-dependent binding” value [1] of the same molecule?
**A.** Its value is 75%.

**Q.** And the Affinity (soluble ICAM-R)?
**A.** Its Affinity is “High (50% maximal binding at a monoclonal antibody concentration of less than 1 μg/ml)”.
